Assay results: US10526371B2, “Hydrogel-forming peptides” (Universiteit Gent, priority 2015, dated 2020)
Numbered stars: 1 amine (or outer) side, 2 acyl side, 3 side chain; on linkers, the order of the positions; unused ones are H or OH. Square brackets hold non-standard residues; d marks the D form. β3hCha = beta-3-homo-cyclohexylalanine, O=C(C[C@H](CC1CCCCC1)N[*:1])[*:2]; β3hW = N[C@H](CC(=O)O)Cc1c[nH]c2ccccc12; β3hF = N[C@H](CC(=O)O)Cc1ccccc1

Experiment: Peptide self-assembly / gelation conditions
Type: physicochemical
Conditions: for time of gelation (self-supporting gel formed) / gelation condition: TFA salt; for time of gelation (self-supporting gel formed): at its own gelation condition
Procedure: Peptide self-assembly was analyzed in i) a PBS solution (10 mM), ii) a PBS/mQ mixture (1:1 v:v, mQ water with a resistivity of […]) or iii) a NaCl aqueous solution (150 mM). The TFA salt of reference peptide SEQ NO. 23 (1 mg) was dissolved in 50 μl mQ water, followed by the addition of 50 μl PBS solution. This mixture was left to rest overnight, resulting in a 1% w/v hydrogel. The TFA salt of mixed α/β-peptides SEQ ID NO 1 and SEQ ID NO 2 (2 mg) was dissolved in mQ (100 μL) and PBS/mQ mixture (100 μL), respectively. […] The TFA salt of mixed α/β-peptide SEQ ID NO 3 (3 mg) was dissolved in PBS (100 μL) to probe gelation. All self-assembled gels were analyzed by circular dichroism (CD) and Fourier transform infrared (FT-IR) spectroscopy, as well as cryogenic transmission electron microscopy (Cryo-TEM).
(SEQ ID NO:22 (=10-mer)), 100 μl mQ water was added to 2 mg of TFA-salt of pure peptide, then vortexed and sonicated. As a result, a transparent self-supporting gel was formed immediately. A gelation condition of 2 w/v % in mQ water was found.
for H-Fβ^2hFEFQFK-NH2 (SEQ ID NO:19), 100 μl of PBS was added to 2 mg of TFA-salt of pure peptide, then vortexed and sonicated. After overnight resting, a self-supporting gel was formed. A gelation condition of 2 w/v % in PBS was determined.

H-Glu-β^3hPhe-Phe-Lys-β^3hPhe-Phe-NH2 (H-E[β3hF]FK[β3hF]F-NH2; SMILES NCCCC[C@H](NC(=O)[C@H](Cc1ccccc1)NC(=O)C[C@H](Cc1ccccc1)NC(=O)[C@@H](N)CCC(=O)O)C(=O)N[C@H](CC(=O)N[C@@H](Cc1ccccc1)C(N)=O)Cc1ccccc1) [SEQ ID NO 12]
Gelation condition % (w/v) (in mQ/PBS 1:0.5): 1.5% (mQ/PBS 1:0.5) % (w/v)

H-Phe-Gln-β^3hPhe-Phe-Gln-β^3hPhe-Phe-Lys-OH (H-FQ[β3hF]FQ[β3hF]FK-OH; SMILES NCCCC[C@H](NC(=O)[C@H](Cc1ccccc1)NC(=O)C[C@H](Cc1ccccc1)NC(=O)[C@H](CCC(N)=O)NC(=O)[C@H](Cc1ccccc1)NC(=O)C[C@H](Cc1ccccc1)NC(=O)[C@H](CCC(N)=O)NC(=O)[C@@H](N)Cc1ccccc1)C(=O)O) [SEQ ID NO 5]
Gelation condition % (w/v) (in mQ): 2% (mQ) % (w/v)

H-Phe-Gln-β^3hPhe-Phe-Lys-NH2 (H-FQ[β3hF]FK-NH2; SMILES NCCCC[C@H](NC(=O)[C@H](Cc1ccccc1)NC(=O)C[C@H](Cc1ccccc1)NC(=O)[C@H](CCC(N)=O)NC(=O)[C@@H](N)Cc1ccccc1)C(N)=O) [SEQ ID NO 9]
Gelation condition % (w/v) (in PBS): 3% (PBS) % (w/v)

H-Phe-Glu-Phe-Gln-Phe-Lys-β^3hPhe-Phe-NH2 (H-FEFQFK[β3hF]F-NH2; SMILES NCCCC[C@H](NC(=O)[C@H](Cc1ccccc1)NC(=O)[C@H](CCC(N)=O)NC(=O)[C@H](Cc1ccccc1)NC(=O)[C@H](CCC(=O)O)NC(=O)[C@@H](N)Cc1ccccc1)C(=O)N[C@H](CC(=O)N[C@@H](Cc1ccccc1)C(N)=O)Cc1ccccc1) [SEQ ID NO 21]
Gelation condition % (w/v) (in mQ/PBS 1:1): 1.5% (mQ/PBS 1:1) % (w/v)

H-Phe-Glu-Phe-Gln-β^3hPhe-Phe-Lys-NH2 (H-FEFQ[β3hF]FK-NH2; SMILES NCCCC[C@H](NC(=O)[C@H](Cc1ccccc1)NC(=O)C[C@H](Cc1ccccc1)NC(=O)[C@H](CCC(N)=O)NC(=O)[C@H](Cc1ccccc1)NC(=O)[C@H](CCC(=O)O)NC(=O)[C@@H](N)Cc1ccccc1)C(N)=O) [SEQ ID NO 18]
Gelation condition % (w/v) (in PBS): 2% (PBS) % (w/v)

H-Phe-Glu-β^3Phe-Tyr-Gln-β^3hPhe-Tyr-Lys-OH (H-FE[β3hF]YQ[β3hF]YK-OH) [SEQ ID NO 4]
Gelation condition % (w/v) (in PBS): 2% (PBS) % (w/v)

H-Phe-Glu-β^3hCha-Phe-Gln-β^3hCha-Phe-Lys-OH (H-FE[β3hCha]FQ[β3hCha]FK-OH) [SEQ ID NO 8]
Gelation condition % (w/v) (in mQ): 3% (mQ) % (w/v)

H-Phe-Glu-β^3hPhe-Phe-Gln-Phe-Gln-β^3hPhe-Phe-Lys-NH2 (H-FE[β3hF]FQFQ[β3hF]FK-NH2; SMILES NCCCC[C@H](NC(=O)[C@H](Cc1ccccc1)NC(=O)C[C@H](Cc1ccccc1)NC(=O)[C@H](CCC(N)=O)NC(=O)[C@H](Cc1ccccc1)NC(=O)[C@H](CCC(N)=O)NC(=O)[C@H](Cc1ccccc1)NC(=O)C[C@H](Cc1ccccc1)NC(=O)[C@H](CCC(=O)O)NC(=O)[C@@H](N)Cc1ccccc1)C(N)=O) [SEQ ID NO 22]
time of gelation (self-supporting gel formed): immediately | gelation condition (in mQ water): 2 w/v % | Gelation condition % (w/v) (in mQ): 2% (mQ) % (w/v)

H-Phe-Glu-β^3hPhe-Phe-Gln-Phe-Lys-NH2 (H-FE[β3hF]FQFK-NH2; SMILES NCCCC[C@H](NC(=O)[C@H](Cc1ccccc1)NC(=O)[C@H](CCC(N)=O)NC(=O)[C@H](Cc1ccccc1)NC(=O)C[C@H](Cc1ccccc1)NC(=O)[C@H](CCC(=O)O)NC(=O)[C@@H](N)Cc1ccccc1)C(N)=O) [SEQ ID NO 13]
Gelation condition % (w/v) (in PBS): 2% (PBS) % (w/v)

H-Phe-Glu-β^3hPhe-Phe-Gln-Phe-Lys-Phe-NH2 (H-FE[β3hF]FQFKF-NH2; SMILES NCCCC[C@H](NC(=O)[C@H](Cc1ccccc1)NC(=O)[C@H](CCC(N)=O)NC(=O)[C@H](Cc1ccccc1)NC(=O)C[C@H](Cc1ccccc1)NC(=O)[C@H](CCC(=O)O)NC(=O)[C@@H](N)Cc1ccccc1)C(=O)N[C@@H](Cc1ccccc1)C(N)=O) [SEQ ID NO 20]
Gelation condition % (w/v) (in mQ/PBS 1:1): 1.5% (mQ/PBS 1:1) % (w/v)

H-Phe-Glu-β^3hPhe-Phe-Lys-NH2 (H-FE[β3hF]FK-NH2; SMILES NCCCC[C@H](NC(=O)[C@H](Cc1ccccc1)NC(=O)C[C@H](Cc1ccccc1)NC(=O)[C@H](CCC(=O)O)NC(=O)[C@@H](N)Cc1ccccc1)C(N)=O) [SEQ ID NO 6]
Gelation condition % (w/v) (in PBS): 3% (PBS) % (w/v)

H-Phe-Glu-β^3hPhe-Phe-Lys-OH (H-FE[β3hF]FK-OH; SMILES NCCCC[C@H](NC(=O)[C@H](Cc1ccccc1)NC(=O)C[C@H](Cc1ccccc1)NC(=O)[C@H](CCC(=O)O)NC(=O)[C@@H](N)Cc1ccccc1)C(=O)O) [SEQ ID NO 7]
Gelation condition % (w/v) (in mQ): 3% (mQ) % (w/v)

H-Phe-Glu-β^3hPhe-Phe-Lys-Phe-NH2 (H-FE[β3hF]FKF-NH2; SMILES NCCCC[C@H](NC(=O)[C@H](Cc1ccccc1)NC(=O)C[C@H](Cc1ccccc1)NC(=O)[C@H](CCC(=O)O)NC(=O)[C@@H](N)Cc1ccccc1)C(=O)N[C@@H](Cc1ccccc1)C(N)=O) [SEQ ID NO 11]
Gelation condition % (w/v) (in PBS): 2% (PBS) % (w/v)

H-Phe-Glu-β^3hPhe-Phe-Lys-β^3hPhe-Phe-NH2 (H-FE[β3hF]FK[β3hF]F-NH2; SMILES NCCCC[C@H](NC(=O)[C@H](Cc1ccccc1)NC(=O)C[C@H](Cc1ccccc1)NC(=O)[C@H](CCC(=O)O)NC(=O)[C@@H](N)Cc1ccccc1)C(=O)N[C@H](CC(=O)N[C@@H](Cc1ccccc1)C(N)=O)Cc1ccccc1) [SEQ ID NO 16]
Gelation condition % (w/v) (in mQ): 2% (mQ) % (w/v)

H-Phe-β^3hPhe-Glu-Phe-Gln-Phe-Lys-NH2 (H-F[β3hF]EFQFK-NH2; SMILES NCCCC[C@H](NC(=O)[C@H](Cc1ccccc1)NC(=O)[C@H](CCC(N)=O)NC(=O)[C@H](Cc1ccccc1)NC(=O)[C@H](CCC(=O)O)NC(=O)C[C@H](Cc1ccccc1)NC(=O)[C@@H](N)Cc1ccccc1)C(N)=O) [SEQ ID NO 19]
time of gelation (self-supporting gel formed): overnight | gelation condition (in PBS): 2 w/v % | Gelation condition % (w/v) (in PBS): 2% (PBS) % (w/v)

H-Trp-Glu-β^3hPhe-Phe-Gln-Trp-Lys-NH2 (H-WE[β3hF]FQWK-NH2; SMILES NCCCC[C@H](NC(=O)[C@H](Cc1c[nH]c2ccccc12)NC(=O)[C@H](CCC(N)=O)NC(=O)[C@H](Cc1ccccc1)NC(=O)C[C@H](Cc1ccccc1)NC(=O)[C@H](CCC(=O)O)NC(=O)[C@@H](N)Cc1c[nH]c2ccccc12)C(N)=O) [SEQ ID NO 15]
Gelation condition % (w/v) (in PBS): 2% (PBS) % (w/v)

H-Trp-Glu-β^3hTrp-Trp-Gln-Trp-Lys-NH2 (H-WE[β3hW]WQWK-NH2; SMILES NCCCC[C@H](NC(=O)[C@H](Cc1c[nH]c2ccccc12)NC(=O)[C@H](CCC(N)=O)NC(=O)[C@H](Cc1c[nH]c2ccccc12)NC(=O)C[C@H](Cc1c[nH]c2ccccc12)NC(=O)[C@H](CCC(=O)O)NC(=O)[C@@H](N)Cc1c[nH]c2ccccc12)C(N)=O) [SEQ ID NO 14]
Gelation condition % (w/v) (in mQ/PBS 1:0.5): 1.5% (mQ/PBS 1:0.5) % (w/v)

H-β^3hPhe-Phe-Glu-Phe-Gln-Phe-Lys-NH2 (H-[β3hF]FEFQFK-NH2; SMILES NCCCC[C@H](NC(=O)[C@H](Cc1ccccc1)NC(=O)[C@H](CCC(N)=O)NC(=O)[C@H](Cc1ccccc1)NC(=O)[C@H](CCC(=O)O)NC(=O)[C@H](Cc1ccccc1)NC(=O)C[C@@H](N)Cc1ccccc1)C(N)=O) [SEQ ID NO 17]
Gelation condition % (w/v) (in PBS): 2% (PBS) % (w/v)

H-β^3hPhe-Phe-Glu-β^3hPhe-Phe-Lys-NH2 (H-[β3hF]FE[β3hF]FK-NH2; SMILES NCCCC[C@H](NC(=O)[C@H](Cc1ccccc1)NC(=O)C[C@H](Cc1ccccc1)NC(=O)[C@H](CCC(=O)O)NC(=O)[C@H](Cc1ccccc1)NC(=O)C[C@@H](N)Cc1ccccc1)C(N)=O) [SEQ ID NO 10]
Gelation condition % (w/v) (in PBS): 1% (PBS) % (w/v)
